Data as given in the nanobody polyreactivity screen of Harvey et al. (2022).

assay: yeast display, Sf9 membrane polyspecificity reagent, FACS + sequencing; frameworks hold sequencing errors
Procedure, shortened: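 A nanobody's polyreactivity label depends on the gate it was sorted from. Yeast display cells were stained with 10% biotinylated, detergent-solubilized Sf9 membrane reagent for 1 hour at 4 °C, enriched on streptavidin microbeads and sorted by FACS. The low and high (top ~1%) gates were set on anti-HA fluorescence for expression and streptavidin fluorescence for reagent binding.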

Sequence | polyreactivity (PSR sort gate)
QVQLVESGGGLVQAGGSLRLSCAAAGSIFSGYAMGWSRQAPGKERELVAAISGSGGSTFYADSVKGRFTISRDNAKKTVYLQMNSLKPEDTAVYYCAARRIAPYARYDYWGQGTQVTVSS | low polyreactivity
QVQLVESGRRLVQAGGSLRLSCAASGSTFYGYGMGWYRPAPRQERELVAAITGSGDTTYYADSVKGRFTISRDNAKNTVYLQMNSLKPEDTAVYYCNARWHAEYDYWGQGTQVTVSS | low polyreactivity
QVQLVESGGGLVQAGGSLRLSCAASGRTFVSYVMGLYRQAPGKERELVAAITWRGGSTYYADSVKGRFTISRDNAKNTVYLQMNSLKPEDTAVYYCNADYRYIWTYWGWTIYDYWGQGTQVTVSS | high polyreactivity
HVQLLESGGGLVQAGGSLRLSCAASGFTFRSYAMGWYRQAPGKERELVAAISGSGGSTYYADSVKGRFTISRDNAKNTVYLQMNSLKPEVTAVYYCAARRSKNSALGGRVSIGDYWGQGTQVTVSS | high polyreactivity
QVQLVESGGGLVQAGGSLRLSCAASGRIFQRYAMGWYSQAPGKERELVAAISSRGGRTFYADSVKGRFTISRDNAKNTVYLQMNSLKPEDTAAYYCAATATVGCVSFDYWGQGTQVTVSS | high polyreactivity
QVQLVESGGVLVQAGGSLRLSCAASGSTFWTNTMGWYRQAPGKERELVAAISRRGGTTYYADSVKGRFTISRDNAKNTVYLQMNSLKPEDTAVYYCATSLIGKTVPLRVYYWGQGTQVTVSS | high polyreactivity
QVQLVESGGGLVQAGGSLRLSCAASGRIFSTYVMGWYRQAPGKERELVAAITWSGGSTYYADSVKGRFTISRDNEKNTVYLQMNSLKPEDTAVYYCAADEIYGYDYWGQGTQVTVSS | high polyreactivity
QVQLVESGGGLVQAGGSLRLSCAASGFTFGWYTMGWYRQAPGKEREFVAAISWSGTSTYYADSVKGRFTISRDNAKNTVYLQMNSLKAEDTAVYYCNKLRRGDMEYWGQGTQVTVSS | high polyreactivity
QVQLVESGGGLVQAGGSLRLSCAASGSTFYAYAMGWYRQAPGKERELVAAIDSGGSTYYADSVKGRFTISRDNAKNTFYLEMNSLKPEDTAVYYCAVRHRYTRAYWGRDYWGQGTQVTVSS | low polyreactivity
QVQLVESGGGLVQAGGSLRLSCAASGSILYPNAMGWYRQAPGKERELVAAISSSGGRTYYADSVKGRFTISRDNAKNTVYLQMNSLKPEDTAVYYCATVSIAGPRYDYWGQGTQVTVSS | high polyreactivity
QVQLVESGGGLVQAGGSLRLSCAASGRTFKYYAMGWYRQAPGKERELVAAISYSGGSTYYADSVKGRFTISRDNAKNTVYLQMNSLKPEDTAVYYCAARFTRYYSGGDQKYDYWGQVTQVTVSS | high polyreactivity
QVQLVESGGGLVQAGGSLRLSCAASGSTFSANTKGWYRQAPGTERELVAGITNTGDTYYADSVKGRFTISRDNAKNTVYLQMNSLKPEDTAVYYCAADSWRRTDGAYWSTVYYWGQGTQVTVSS | low polyreactivity
QVQLVESAGGLVQAGGSLRLSCAASGRTFPGNAMGWYRQAPGKERELVATISSGGTTNYADSVKGRFTISRDNAKTTVYLQMNSLKPEDTAVYYCATDTYHHKADYEYWGQGTQVTVSS | low polyreactivity
QVQLVESGGGLVQAGGSLRLSCAASGSIFYYNAMGWYRQAPGKERELVAAITSGGSTHYADSVKGRFTISRDNAKNTVYLQMNSLKPEDTAVYYCAADVWYKYHRSAIIVEFDYWGQGTQVTVSS | low polyreactivity
QVQLVESGGGLVQAGGSLRLSCAASGSIFKTNAMGWYRQAPGKERELVAGISNGGSTNYADSVKGRFTISRDNAKNTVYFQMNSLKPEDTAVYYCAAEYEYLWSQYLTDYGYDSWGQGTQVTVSS | low polyreactivity
QVQLVESGGGLVQAGGSLRLSCAASGRTFDTNAMGWYRQAPGKERELVAVITARGGNTSYADSVKGRFTISRENAKNTVSLQMNSLKPEDTAVYYCAARVYRAPWTYEEGNYWGQGTQVTVSS | low polyreactivity

Sequence | polyreactivity (PSR sort gate)
QVQLVESGGGLVQAGGSLRLSCAASGRTFSWYAMGWYRQAPGKERELVAAITSVGSTNYADSVKGRFTISRDNAKNTVYLQMNSLKPEDTAVYYCAATIFVYSYRYYYWGQGTQVTVSS | low polyreactivity
QVQLVESGGGLVQAGGSLRLSCAASGRIFGYNAMGWSRQAPGKERELVAAISYSGGSTYYADSVKGRFTISRDNAKNTVYLQMNSLKPEDTAVYYCAARHPYYYHYDYWGQGTQVTVSS | high polyreactivity
QVHQQESGGDLEQAGGSLRLSCTASGTISDVRFMGWYRQAPGKERELVATISYVTITYYADSVKGRFTISRDSEKHRVSADDEHETGRYRGVFLLYYWGLGTQVTVSS | low polyreactivity
QVRLVESAGGIVQAGGSLRLSCAASGRTFSVHAMGWYTQAPGKERELVAAISWDGGSTYYGDSVKGRFTISRDNSKNTVYLQMNSLKPEDTAVYYCYKELYYAYDYWGLGTQVTVSS | low polyreactivity
QVQLVESGGGLVQAGGSLRLSCAASGRTFYYYARGWYRQAPGKERELVAAINTRGVSTYYEDSVKGRFTISRDNAKNTVYLQMNSLKPEDTAVYYCNKGFSYGRDYWGQGTQVTVSS | high polyreactivity
QVQLVESGGGLVQAGGSLRLSCAASGSIFGLYAMGWYRQAPGKERELVAAITWSSGNTYYADSVKGRFTISRDNAKNTVYLQMYSLKPEDTAVYYCAATSVSISYRYDYWGQGTQVTVSS | high polyreactivity
QVQLVESGGGLVQAGGSLRLSCAASGRIFRGYTMGWYRTAPGKERELVAAISRSTGSTNYADSVKGRFTISRDNAKNTVYLQMNSLKPEDTAVYYCAAGPVDYGDWYYDVWFDYWGQGTQVTVSS | high polyreactivity
QVQLVESGGGLVQAGGSLRLSCAASGFIFGVYAMGWYRQAPGKERELVAAITSSGTSTYYADSVKGRFTISRDNAKNTVYLQMNSLKPEDTAVYYCNKSGYIYHRKLWTPYYYWGQGTQGTVSS | low polyreactivity
QVQLVESGGGLVLAGVSLRLSCAASGSTFPYNAMGWYRQAPGKERELVAAITSRGGSTYYADSVKGRFTISRDNAKNTVYLQMNSLKPEDTAVYYCATPGDTYGWTRRRYYYWGQGTQVTVSS | high polyreactivity
QVQLEESGGGLVQAGGSLRLSCAASGRIFLTYAMGWYRQAPGKERELVAAIRSRSGTTYYADSVKGRFTISRDNAKNTVYLQMNSLKPEDTAVYYCAAGGKSRSYYWGQGTQVTVSS | high polyreactivity
QVQLVESGGGLVQAGGSLRLSCAASGLTFGDYTMGWYRQAPGKERELVAAITWSGASTYYADSVKGRFTISRDNAKNTVYLQMNSLKPEDTAVYYCADERTPSYRAYDYWGQGTKVTVSS | low polyreactivity
QVQLVESGGGLVQAGGSLRLSSAASGITFRFYSMGWYRQAPGKEREFVAAISTRGGRTYYADSVKGRFTISRDNAKNTVYLQMKSLKPEDTAVYYFAADFYYRTVATVTSVARYDYWGQGTQVTVSS | high polyreactivity
QVQLVESGGGLVQAGGSLRISCAASGSIFYGNAMGWYRQAPGKERELVAAISKRGGSTYYADSVKGRFTISRDNAKNTVYLQMNSLKPEDTAVYYCAKATAGHTEYYYWGQGTQVTVSS | high polyreactivity
QVQLVESGGGLVQAGGSLRLSCAASGSIFDRNAMGWYRQAPGKERELVAAISVSGGSTYYADSVKGRFTISRDNAKNTVYLQMNSLKPEDTAVYYCAKAGRYANLPYGYWGQGTQVTVSS | high polyreactivity
QVQLVESGGGLVQAGGSLRLSCAASGSIFTNAMGWYRQAPGKERELVAAISSTGGSTYYADSVKGRFTISRDNAKNTVYLQMYSLKPEDTAVYYCAADHYGGRDYWGQGTQLTVSS | low polyreactivity
QVQLVESGGGLVQAGGSLRLSCAASGIIFKRYAMGWYRQAPGKERELVATITRDGRTSYADSVKGRFTISRDNAKNTVYLQMNSLKPEDTAVYYCNKRGTYAPPTPGNLFDYWGQGTQVTVSS | low polyreactivity
